The values below come from US20240026037A1.

Assay [1] has as its target Human GPA33 on GPA33+ colorectal cancer cell lines (Colo 205, LS 174T, SW 1222) (human) (UniProt Q99795). As to the kind of experiment: cell binding to SW1222 Luc cells; IgG format.
The target in assay [2] is Human GPA33 (recombinant protein, Novoprotein) (human) (UniProt Q99795). Briefly: SPR (Biacore), binding to GPA33 protein; IgG format. For orientation: Surface plasmon resonance follows binding to a sensor surface in real time, without labels.
Assay [3] deals with Human GPA33 on GPA33+ colorectal cancer cell lines (Colo 205, LS 174T, SW 1222) (human) (UniProt Q99795). Briefly: cell binding to LS174T Luc cells; IgG format.

Broadly, the EC50 is the concentration giving half of the maximal effect. The low end stands for an effect from little substance, the high end for a need for much substance. The Kd is the concentration at which binding is half-saturated.

Human GPA33 on GPA33+ colorectal cancer cell lines (Colo 205, LS 174T, SW 1222) (human), sequence (Q99795 22-319 limits assumed): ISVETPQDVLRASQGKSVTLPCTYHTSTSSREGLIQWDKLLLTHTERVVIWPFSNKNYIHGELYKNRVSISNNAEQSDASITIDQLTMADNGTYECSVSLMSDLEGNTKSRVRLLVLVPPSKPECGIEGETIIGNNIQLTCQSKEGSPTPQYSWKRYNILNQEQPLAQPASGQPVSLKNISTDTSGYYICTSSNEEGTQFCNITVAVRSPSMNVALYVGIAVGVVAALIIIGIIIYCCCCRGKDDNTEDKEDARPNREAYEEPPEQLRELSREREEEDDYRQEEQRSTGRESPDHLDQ
Human GPA33 (recombinant protein, Novoprotein) (human), sequence (Q99795 22-235 limits assumed): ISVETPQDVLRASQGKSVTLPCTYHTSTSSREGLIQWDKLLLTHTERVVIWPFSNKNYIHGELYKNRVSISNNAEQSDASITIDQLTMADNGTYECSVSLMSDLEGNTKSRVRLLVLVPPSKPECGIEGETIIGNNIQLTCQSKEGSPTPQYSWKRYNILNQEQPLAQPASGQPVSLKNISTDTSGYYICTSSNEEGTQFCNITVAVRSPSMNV

B1: G3A_VK1+VH1 (antibody, IgG1, V domains shown, part only)
VH: EVQLVESGGGLVKPGGSLRLSCAASGFAFSTYDMSWVRQAPGKGLEWVSTISSGGSYTYYADSVKGRFTISRDNAKNSLYLQMNSLRAEDTAVYYCAPTTVVPFAYWGQGTLVTVSA
VL: DIQMTQSPSSLSASVGDRVTITCKASQNVRTVVAWYQQKPGKAPKRLIYLASNRHTGVPSRFSGSGSGTEFTLTISNLQPEDFATYYCLQHWSYPLTFGSGTKLEVK
modifications: IgG1 constant regions not given
Take B1: the EC50 in assay [1] stood at 1.51 µg/mL; in assay [3], 1.12 µg/mL. Besides, in assay [2], the Kd was 0.87 nM.

B2: G3A_VK3+VH2 (antibody, IgG1, V domains shown, part only)
VH: EVQLVESGGGLVKPGGSLRLSCAASGFAFSTYDMSWVRQAPGKGLEWVATISSGGSYTYYLDSVKGRFTISRDSAKNSLYLQMNSLRAEDTAVYYCAPTTVVPFAYWGQGTLVTVSA
VL: DIQMTQSPSSLSTSVGDRVTITCKASQNVRTVVAWYQQKPGKAPKTLIYLASNRHSGVPSRFSGSGSGTEFTLTISNLQPEDFATYYCLQHWSYPLTFGSGTKLEVK
modifications: IgG1 constant regions not given
On to B2, for which the results for the EC50 in assay [1] and in assay [3] were 0.383 µg/mL and 0.381 µg/mL, respectively. Also, the Kd in assay [2] was found to be 0.241 nM.

B3: G3A_VK2+VH2 (antibody, IgG1, V domains shown, part only)
VH: EVQLVESGGGLVKPGGSLRLSCAASGFAFSTYDMSWVRQAPGKGLEWVATISSGGSYTYYLDSVKGRFTISRDSAKNSLYLQMNSLRAEDTAVYYCAPTTVVPFAYWGQGTLVTVSA
VL: DIQMTQSPSSLSTSVGDRVTITCKASQNVRTVVAWYQQKPGKAPKTLIYLASSLQSGVPSRFSGSGSGTEFTLTISNVQPEDFADYFCLQHWSYPLTFGSGTKLEVK
modifications: IgG1 constant regions
Turning to B3, in assay [2], the Kd is 9.54 nM.

B4: G3A_VK2+VH1 (antibody, IgG1, V domains shown, part only)
VH: EVQLVESGGGLVKPGGSLRLSCAASGFAFSTYDMSWVRQAPGKGLEWVSTISSGGSYTYYADSVKGRFTISRDNAKNSLYLQMNSLRAEDTAVYYCAPTTVVPFAYWGQGTLVTVSA
VL: DIQMTQSPSSLSTSVGDRVTITCKASQNVRTVVAWYQQKPGKAPKTLIYLASSLQSGVPSRFSGSGSGTEFTLTISNVQPEDFADYFCLQHWSYPLTFGSGTKLEVK
modifications: IgG1 constant regions not given
As for B4, in assay [2], the Kd came out at 5.8 nM. Moreover, in assay [3], the EC50 amounted to 1.2 µg/mL.

B5: G3A_VK1+VH2 (antibody, IgG1, V domains shown, part only)
VH: EVQLVESGGGLVKPGGSLRLSCAASGFAFSTYDMSWVRQAPGKGLEWVATISSGGSYTYYLDSVKGRFTISRDSAKNSLYLQMNSLRAEDTAVYYCAPTTVVPFAYWGQGTLVTVSA
VL: DIQMTQSPSSLSASVGDRVTITCKASQNVRTVVAWYQQKPGKAPKRLIYLASNRHTGVPSRFSGSGSGTEFTLTISNLQPEDFATYYCLQHWSYPLTFGSGTKLEVK
modifications: IgG1 constant regions
Turning to B5, the EC50 in assay [1] was determined as 0.991 µg/mL; in assay [3] it was 0.654 µg/mL. The Kd in assay [2] came to 1.73 nM.

B6: G3A_VK1+VH3 (antibody, IgG1, V domains shown, part only)
VH: EVQLVESGGGLVKPGGSLRLSCAASGFAFSTYDMSWVRQAPGKGLEWVATISSGGSYTYYADSVKGRFTISRDSAKNSLYLQMNSLRAEDTAVYYCAPTTVVPFAYWGQGTLVTVSA
VL: DIQMTQSPSSLSASVGDRVTITCKASQNVRTVVAWYQQKPGKAPKRLIYLASNRHTGVPSRFSGSGSGTEFTLTISNLQPEDFATYYCLQHWSYPLTFGSGTKLEVK
modifications: IgG1 constant regions
As for B6, the EC50 in assay [1] was found to be 1.32 µg/mL; in assay [3], 1.78 µg/mL. In addition, the Kd in assay [2] was 1.49 nM.

B7: G3A_VK2+VH3 (antibody, IgG1, V domains shown, part only)
VH: EVQLVESGGGLVKPGGSLRLSCAASGFAFSTYDMSWVRQAPGKGLEWVATISSGGSYTYYADSVKGRFTISRDSAKNSLYLQMNSLRAEDTAVYYCAPTTVVPFAYWGQGTLVTVSA
VL: DIQMTQSPSSLSTSVGDRVTITCKASQNVRTVVAWYQQKPGKAPKTLIYLASSLQSGVPSRFSGSGSGTEFTLTISNVQPEDFADYFCLQHWSYPLTFGSGTKLEVK
modifications: IgG1 constant regions not given
In turn, B7 gave an EC50 in assay [1] of 1.89 µg/mL. The Kd in assay [2] stood at 8.39 nM.

B8: G3A_VK4+VH2 (antibody, IgG1, V domains shown, part only)
VH: EVQLVESGGGLVKPGGSLRLSCAASGFAFSTYDMSWVRQAPGKGLEWVATISSGGSYTYYLDSVKGRFTISRDSAKNSLYLQMNSLRAEDTAVYYCAPTTVVPFAYWGQGTLVTVSA
VL: DIQMTQSPSSLSASVGDRVTITCKASQNVRTVVAWYQQKPGKAPKTLIYLASNRHTGVPSRFSGSGSGTEFTLTISNLQPEDFATYYCLQHWSYPLTFGSGTKLEVK
modifications: IgG1 constant regions not given
On to B8, for which the values for the EC50 in assay [1] and in assay [3] were 0.314 µg/mL and 0.364 µg/mL, respectively. In addition, in assay [2], the Kd worked out at 0.229 nM.
